From patent publication US20230076063

Experiments:
[1] = system: MamA DNA methyltransferase (Mycobacterium tuberculosis); experiment: cell_activity; details: SMRT sequencing kinetics; mostly fully methylated reads
[2] = system: MamB DNA methyltransferase (Mycobacterium tuberculosis); experiment: cell_activity; details: SMRT sequencing kinetics

Substance	activity (mean SMALR native score) [1]	activity (mean SMALR native score) [2]
CTGGAG (double strand) [MamA target motif sites]	2.14	–
MamB target motif sites	–	2.19
